Consider one molecule from patent publication US20150284431A1 (H LEE MOFFITT CANCER CENTER AND RESEARCH INSTITUTE, published 2015).

Square brackets hold non-standard residues; d marks the D form. Primed or numbered codes have the meaning given here. Side chains are listed from the residue outwards. * marks the point of attachment. Butanoyl(4-Ph) = O=C(CCCc1ccccc1)*; IR800CW″ = IRDye800CW maleimide; Mpa = O=C(O)CCS

The target in this experiment is MC5R expressed in the kidneys (of the xenograft-bearing mice). Put plainly: cell-based or functional assay.
MC5R expressed in the kidneys (of the xenograft-bearing mice), sequence (P41149 whole entry): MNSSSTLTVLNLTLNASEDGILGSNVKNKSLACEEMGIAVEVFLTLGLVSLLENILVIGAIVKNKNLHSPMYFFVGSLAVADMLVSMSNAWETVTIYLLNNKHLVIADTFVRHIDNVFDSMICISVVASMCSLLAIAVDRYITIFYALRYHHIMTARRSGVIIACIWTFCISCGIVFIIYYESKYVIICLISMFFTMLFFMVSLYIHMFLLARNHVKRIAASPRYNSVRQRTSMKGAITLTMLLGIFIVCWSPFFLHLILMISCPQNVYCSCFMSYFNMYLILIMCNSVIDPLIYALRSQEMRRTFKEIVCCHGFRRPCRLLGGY

Turning to {Butanoyl(4-Ph)}-H[dF]RWGK([Mpa-IR800CW″])-NH2 [4-phenylbutyryl-His-DPhe-Arg-Trp-Gly-Lys(Mpr-IR800CW)-NH2], the “fold decrease in renal uptake of MC1RL-800 at 2 hr, with co-injection of 1 nmol/kg MC4R/5R compound (SEQ ID NO:10), compared to control animals” value is 1.56 fold.
